According to patent US20220010003A1 (Boehringer Ingelheim, published 2022):

Experiments:
[1] = molecular target: T1, recombinant human periostin (human, UniProt Q15063 22-836); assay: binding ELISA, periostin coated
T1 construct: also called HuPOSTN; POSTN
T1 sequence: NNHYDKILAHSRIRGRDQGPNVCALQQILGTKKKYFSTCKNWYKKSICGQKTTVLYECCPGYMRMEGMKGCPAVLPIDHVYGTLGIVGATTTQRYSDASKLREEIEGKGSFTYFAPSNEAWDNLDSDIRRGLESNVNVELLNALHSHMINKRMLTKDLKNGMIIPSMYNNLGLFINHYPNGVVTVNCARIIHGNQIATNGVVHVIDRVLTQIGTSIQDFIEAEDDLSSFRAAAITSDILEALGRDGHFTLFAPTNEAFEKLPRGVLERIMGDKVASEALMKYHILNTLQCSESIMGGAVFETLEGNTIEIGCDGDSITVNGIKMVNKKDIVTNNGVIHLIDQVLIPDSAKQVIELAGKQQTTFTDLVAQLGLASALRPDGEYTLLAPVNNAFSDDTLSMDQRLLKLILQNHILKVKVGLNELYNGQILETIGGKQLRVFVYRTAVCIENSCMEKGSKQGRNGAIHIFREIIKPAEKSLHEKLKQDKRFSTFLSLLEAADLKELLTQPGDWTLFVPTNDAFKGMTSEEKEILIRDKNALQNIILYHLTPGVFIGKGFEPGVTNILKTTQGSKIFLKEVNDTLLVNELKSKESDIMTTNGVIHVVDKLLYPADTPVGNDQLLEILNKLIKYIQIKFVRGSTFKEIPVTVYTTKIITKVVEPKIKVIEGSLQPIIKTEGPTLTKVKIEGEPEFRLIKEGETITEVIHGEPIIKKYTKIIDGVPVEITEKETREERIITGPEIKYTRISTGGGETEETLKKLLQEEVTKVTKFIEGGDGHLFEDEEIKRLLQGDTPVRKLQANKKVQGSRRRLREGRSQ

[2] = molecular target: T2, recombinant mouse periostin (mouse, UniProt Q62009-2 24-811, limits assumed); assay: binding ELISA, periostin coated
T2 construct: also called MoPOSTN
T2 sequence (looked up): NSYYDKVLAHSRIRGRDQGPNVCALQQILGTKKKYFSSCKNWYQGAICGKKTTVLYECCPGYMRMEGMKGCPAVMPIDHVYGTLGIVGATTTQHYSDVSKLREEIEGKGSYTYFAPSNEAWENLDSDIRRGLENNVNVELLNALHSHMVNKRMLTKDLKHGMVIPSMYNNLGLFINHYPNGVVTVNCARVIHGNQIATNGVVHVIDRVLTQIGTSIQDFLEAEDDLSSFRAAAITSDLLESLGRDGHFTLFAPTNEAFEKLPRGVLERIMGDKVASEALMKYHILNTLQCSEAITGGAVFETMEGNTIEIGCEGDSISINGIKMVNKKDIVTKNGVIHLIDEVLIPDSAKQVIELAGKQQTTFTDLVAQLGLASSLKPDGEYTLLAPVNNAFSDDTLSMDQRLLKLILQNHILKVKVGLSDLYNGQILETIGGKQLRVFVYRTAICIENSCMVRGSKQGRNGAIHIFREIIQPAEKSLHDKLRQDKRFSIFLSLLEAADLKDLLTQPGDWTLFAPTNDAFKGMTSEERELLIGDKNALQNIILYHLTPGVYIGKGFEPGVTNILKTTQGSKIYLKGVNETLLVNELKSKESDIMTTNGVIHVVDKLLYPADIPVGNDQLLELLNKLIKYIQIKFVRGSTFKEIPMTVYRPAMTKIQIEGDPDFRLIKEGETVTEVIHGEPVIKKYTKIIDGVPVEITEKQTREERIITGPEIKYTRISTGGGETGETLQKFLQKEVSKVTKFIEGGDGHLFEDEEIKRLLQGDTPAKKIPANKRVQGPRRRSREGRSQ

NB1202 (N276A) = molecular target: T3, NB1202 (N276A) (human, UniProt Q15063 22-631, limits assumed); assay: ELISA on alanine variants of POSTN EMI-FAS4, second screen
T3 construct: also called POSTN EMI-FAS4 N276A
T3 sequence: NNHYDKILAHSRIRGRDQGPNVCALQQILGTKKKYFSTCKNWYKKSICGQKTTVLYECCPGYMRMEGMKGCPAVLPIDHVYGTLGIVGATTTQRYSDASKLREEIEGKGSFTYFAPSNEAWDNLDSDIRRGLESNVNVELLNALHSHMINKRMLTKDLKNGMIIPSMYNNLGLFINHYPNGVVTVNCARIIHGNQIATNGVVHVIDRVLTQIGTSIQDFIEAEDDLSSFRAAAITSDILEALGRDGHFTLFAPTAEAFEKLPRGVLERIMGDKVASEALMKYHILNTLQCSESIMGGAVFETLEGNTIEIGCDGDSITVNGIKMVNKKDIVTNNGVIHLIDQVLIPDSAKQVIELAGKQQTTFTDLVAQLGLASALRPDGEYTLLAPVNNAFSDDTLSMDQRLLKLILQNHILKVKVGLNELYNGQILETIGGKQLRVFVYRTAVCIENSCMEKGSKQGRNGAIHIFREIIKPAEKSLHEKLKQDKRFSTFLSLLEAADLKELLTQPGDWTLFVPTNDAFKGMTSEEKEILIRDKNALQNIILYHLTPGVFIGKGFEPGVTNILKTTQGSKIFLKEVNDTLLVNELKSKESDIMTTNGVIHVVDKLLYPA

[3] = molecular target: T4, recombinant rat periostin (rat, UniProt A0A8I6AHK0 24-838); assay: BLI (Octet Red); Table 6 ties the high end of the range to rat periostin
T4 construct: also called RatPOSTN
Protocol: NB0828's binding affinity was determined across human, mouse, rat, and cyno species. NB0828 affinities were determined using the octet red system. Briefly, anti-human Fc (AHC) biosensors were used to capture NB0828, followed by association of titrating amounts of either recombinant human, mouse, rat, or cyno periostin (100 nM→0 nM; 1:2 dilutions). Recombinant human, mouse, and rat periostin was purchased commercially from R&D systems, whereas cyno periostin was made internally.

EC50 [1]: 0.12 nM
EC50 [2]: 0.15 nM
loss from the max signal (NB1202 (N276A)): > 50%
Kd [3]: 0.5 nM
B1: NB0828 (antibody, V domains shown)
VH: QVQLVQSGAEVKKPGASVKVSCKASGYTFTSYGISWVRQAPGQGLEWMGWISAYNGNTNYAQKLQGRVTMTTDTSTSTAYMELRSLRSDDTAVYYCARDMLVVPFDYWGQGTLVTVSS
VL: QSVLTQSSSASGTPGQTVTVSCSGSSSDIGSNRVNWYQQLPGTAPKLLIYSNDQRPSGVPDRFSGSKSGTSASLAISGLQSADEADYYCAAWDDSLSTYVFGSGTKVTVL
